A short description of this series: total protein half-life in vivo (active degradation + dilution); higher = more stable protein.
[1] abbreviates: E. coli NCM3722 delta-clpP delta-lon delta-hslV, growth: N-lim chemostat, doubling time 6 h.
Setting [2] is: E. coli NCM3722 delta-smpB, growth: N-lim chemostat, doubling time 6 h.
The mark [3] stands for this setting: wild type E. coli NCM3722, growth: C-lim chemostat, doubling time 6 h.
[4] abbreviates: wild type E. coli NCM3722, growth: C-lim chemostat, doubling time 12 h.
[5] abbreviates: wild type E. coli NCM3722, growth: N-lim chemostat, doubling time 6 h.
Setting [6] is: wild type E. coli NCM3722, growth: N-lim chemostat, doubling time 12 h.
Where [7] appears, read: wild type E. coli NCM3722, growth: P-lim chemostat, doubling time 6 h.
The mark [8] stands for this setting: wild type E. coli NCM3722, growth: P-lim chemostat, doubling time 12 h.
[9] abbreviates: E. coli NCM3722 delta-clpP, growth: N-lim chemostat, doubling time 6 h.
[10] abbreviates: E. coli NCM3722 delta-hslV, growth: N-lim chemostat, doubling time 6 h.
[11] abbreviates: E. coli NCM3722 delta-lon, growth: N-lim chemostat, doubling time 6 h.
Where [12] appears, read: wild type E. coli NCM3722, growth: C-lim chemostat, doubling time 3 h.

± gives the standard deviation of the averaged measurements. Bounds are passed on as bounds.

On to “MSNKNVNVRKSQEITFCLLAGILMFMAMMVAGRAEAGVALGATRVIYPAGQKQEQLAVTNNDENSTYLIQSWVENADGVKDGRFIVTPPLFAMKGKKENTLRILDATNNQLPQDRESLFWMNVKAIPSMDKSKLTENTLQLAIISRIKLYYRPAKLALPPDQAAEKLRFRRSANSLTLINPTPYYLTVTELNAGTRVLENALVPPMGESTVKLPSDAGSNITYRTINDYGALTPKMTGVME”, for which the “total protein half-life in vivo” value under setting [1] came to 4.77 h; the “total protein half-life in vivo” value under setting [2] is 5.38 ± 0.18 h; the “total protein half-life in vivo” value under setting [3] was 5.55 ± 0.66 h; the “total protein half-life in vivo” value under setting [4] was over 16 h; the “total protein half-life in vivo” value under setting [5] was found to be 7.84 h; the “total protein half-life in vivo” value under setting [6] was found to be 14.8 h. Also, the “total protein half-life in vivo” value under setting [7] came out at 5.67 h and the “total protein half-life in vivo” value under setting [8] came to 13.2 ± 3 h.
With “MSKVTPQPKIGFVSLGCPKNLVDSERILTELRTEGYDVVPSYDDADMVIVNTCGFIDSAVQESLEAIGEALNENGKVIVTGCLGAKEDQIREVHPKVLEITGPHSYEQVLEHVHHYVPKPKHNPFLSLVPEQGVKLTPRHYAYLKISEGCNHRCTFCIIPSMRGDLVSRPIGEVLSEAKRLVDAGVKEILVISQDTSAYGVDVKHRTGFHNGEPVKTSMVSLCEQLSKLGIWTRLHYVYPYPHVDDVIPLMAEGKILPYLDIPLQHASPRILKLMKRPGSVDRQLARIKQWREICPELTLRSTFIVGFPGETEEDFQMLLDFLKEARLDRVGCFKYSPVEGADANALPDQVPEEVKEERWNRFMQLQQQISAERLQEKVGREILVIIDEVDEEGAIGRSMADAPEIDGAVYLNGETNVKPGDILRVKVEHADEYDLWGSRV [P0AEI4]”, the “total protein half-life in vivo” value under setting [1] amounted to 4.5 ± 0.2 h; the “total protein half-life in vivo” value under setting [9] came to 2.28 ± 0.062 h; the “total protein half-life in vivo” value under setting [10] was found to be 3.6 ± 0.089 h; the “total protein half-life in vivo” value under setting [11] was determined as 4.08 ± 0.84 h; the “total protein half-life in vivo” value under setting [2] is 2.94 ± 0.053 h; the “total protein half-life in vivo” value under setting [12] was 2.36 ± 0.54 h. For the same sequence, the “total protein half-life in vivo” value was determined as 4.39 ± 0.39 h under setting [3]; 7.02 ± 1.1 h under setting [4]; 3.47 ± 0.46 h under setting [5]; 5.31 ± 0.15 h under setting [6]; 4.37 ± 0.28 h under setting [7]; 6.68 ± 0.64 h under setting [8].
Consider “MTEPLKPRIDFDGPLEVDQNPKFRAQQTFDENQAQNFAPATLDEAQEEEGQVEAVMDAALRPKRSLWRKMVMGGLALFGASVVGQGVQWTMNAWQTQDWVALGGCAAGALIIGAGVGSVVTEWRRLWRLRQRAHERDEARDLLHSHGTGKGRAFCEKLAQQAGIDQSHPALQRWYASIHETQNDREVVSLYAHLVQPVLDAQARREISRSAAESTLMIAVSPLALVDMAFIAWRNLRLINRIATLYGIELGYYSRLRLFKLVLLNIAFAGASELVREVGMDWMSQDLAARLSTRAAQGIGAGLLTARLGIKAMELCRPLPWIDDDKPRLGDFRRQLIGQVKETLQKGKTPSEK [P0A8R7]”, for which the “total protein half-life in vivo” value amounted to 5.42 ± 0.51 h under setting [1]; 5.1 ± 0.24 h under setting [9]; 4.51 ± 0.62 h under setting [10]; 4.85 ± 0.12 h under setting [11]; 4.83 ± 0.29 h under setting [2]; 2.96 ± 0.27 h under setting [12]. Besides, the “total protein half-life in vivo” value under setting [3] is 4.75 ± 0.28 h; the “total protein half-life in vivo” value under setting [4] is 11.2 ± 0.13 h; the “total protein half-life in vivo” value under setting [5] was 5.23 ± 0.17 h; the “total protein half-life in vivo” value under setting [6] is 8.5 ± 0.23 h; the “total protein half-life in vivo” value under setting [7] turned out to be 5.02 ± 0.48 h; the “total protein half-life in vivo” value under setting [8] came out at 8.52 ± 0.38 h.
Turning to “MRRTFIKKEGVVITTLARYLLGEKCGNRLKTIDELANECRSSVGLTQAALKTLESSGAIRIERRGRNGSYLVEMDNKALLTHVDINNVVCAMPLPYTRLYEGLASGLKAQFDGIPFYYAHMRGADIRVECLLNGVYDMAVVSRLAAESYLTQKGLCLALELGPHTYVGEHQLICRKGESANVKRVGLDNRSADQKIMTDVFFGGSDVERVDLSYHESLQRIVKGDVDAVIWNVVAENELTMLGLEATPLTDDPRFLQATEAVVLTRVDDYPMQQLLRAVVDKHALLAHQQRVVSGEQEPSY”, the “total protein half-life in vivo” value by setting is: under setting [1], 6.2 ± 0.085 h; under setting [9], 5.94 ± 0.07 h; under setting [10], 5.34 ± 0.15 h; under setting [11], 5.75 ± 0.52 h; under setting [2], 4.78 ± 0.41 h; under setting [12], 2.78 ± 0.093 h. Also, the “total protein half-life in vivo” value by setting is: under setting [3], 5.3 ± 0.1 h; under setting [4], 7.63 ± 2.6 h; under setting [5], 4.68 ± 0.65 h; under setting [6], 9.45 ± 0.82 h; under setting [7], 5.166 ± 0.0084 h; under setting [8], 9.42 ± 0.63 h.
In the case of “MGLPPLSKIPLILRPQAWLHRRHYGEVLSPIRWWGRIPFIFYLVSMFVGWLERKRSPLDPVVRSLVSARIAQMCLCEFCVDITSMKVAERTGSSDKLLAVADWRQSPLFSDEERLALEYAEAASVTPPTVDDALRTRLAAHFDAQALTELTALIGLQNLSARFNSAMDIPAQGLCRIPEKRS”, the “total protein half-life in vivo” value reads like this: under setting [1], 6.87 ± 0.28 h; under setting [9], 6.4 ± 0.37 h; under setting [10], 6.22 ± 0.48 h; under setting [11], 6.463 ± 0.023 h; under setting [2], 5.67 ± 0.46 h; under setting [12], 2.74 ± 0.068 h. Further, the “total protein half-life in vivo” value reads like this: under setting [3], 5.52 ± 0.59 h; under setting [4], 12.1 ± 0.48 h; under setting [5], 6 ± 0.46 h; under setting [6], 11.3 ± 3.4 h; under setting [7], 6.48 ± 0.71 h; under setting [8], 13.1 ± 0.5 h.

These data come from the supplement of paper PMC11246515.
